According to publication doi:10.1101/2022.09.25.509440 (bioRxiv, 2022):

Biological target: T1, human LRP6-ECD-Fc (human, UniProt O75581 20-1370)
T1 sequence (looked up): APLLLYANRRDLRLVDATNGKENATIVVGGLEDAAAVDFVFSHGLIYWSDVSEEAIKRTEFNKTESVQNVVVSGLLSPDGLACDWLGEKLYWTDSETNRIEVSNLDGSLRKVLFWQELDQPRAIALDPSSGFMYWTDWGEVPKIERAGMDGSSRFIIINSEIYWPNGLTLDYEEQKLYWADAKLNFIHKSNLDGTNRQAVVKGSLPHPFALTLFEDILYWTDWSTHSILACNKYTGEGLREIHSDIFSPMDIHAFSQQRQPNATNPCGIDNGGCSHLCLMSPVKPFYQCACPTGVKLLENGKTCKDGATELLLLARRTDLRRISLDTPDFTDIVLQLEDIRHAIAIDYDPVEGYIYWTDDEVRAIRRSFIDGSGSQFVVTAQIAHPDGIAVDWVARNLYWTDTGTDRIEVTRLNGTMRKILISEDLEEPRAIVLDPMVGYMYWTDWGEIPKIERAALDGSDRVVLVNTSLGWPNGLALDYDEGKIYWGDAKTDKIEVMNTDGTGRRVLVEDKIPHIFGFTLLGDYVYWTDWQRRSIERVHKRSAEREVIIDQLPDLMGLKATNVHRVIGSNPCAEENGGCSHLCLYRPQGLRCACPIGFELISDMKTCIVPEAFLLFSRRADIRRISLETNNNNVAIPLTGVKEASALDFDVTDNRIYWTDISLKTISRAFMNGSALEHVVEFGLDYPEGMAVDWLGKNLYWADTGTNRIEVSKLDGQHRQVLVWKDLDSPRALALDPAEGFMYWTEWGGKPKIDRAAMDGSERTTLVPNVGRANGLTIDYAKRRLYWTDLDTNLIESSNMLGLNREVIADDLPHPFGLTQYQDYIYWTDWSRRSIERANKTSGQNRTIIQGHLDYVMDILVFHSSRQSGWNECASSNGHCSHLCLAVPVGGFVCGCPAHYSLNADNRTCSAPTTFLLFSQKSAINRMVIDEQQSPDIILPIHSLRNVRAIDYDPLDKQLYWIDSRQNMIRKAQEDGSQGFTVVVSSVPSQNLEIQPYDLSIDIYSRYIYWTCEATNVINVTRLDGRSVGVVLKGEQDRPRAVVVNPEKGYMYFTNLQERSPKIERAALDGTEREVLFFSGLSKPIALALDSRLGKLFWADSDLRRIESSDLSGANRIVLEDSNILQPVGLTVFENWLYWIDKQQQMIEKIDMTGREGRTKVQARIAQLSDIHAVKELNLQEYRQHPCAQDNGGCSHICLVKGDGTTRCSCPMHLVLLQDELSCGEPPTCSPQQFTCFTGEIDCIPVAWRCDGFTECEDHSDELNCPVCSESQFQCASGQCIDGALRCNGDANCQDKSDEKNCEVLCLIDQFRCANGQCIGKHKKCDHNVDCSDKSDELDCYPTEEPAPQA
Assay: BLI

B1: recombinant human Wnt3a (ligand, UniProt P56704 19-352, looked up)
chain: SYPIWWSLAVGPQYSSLGSQPILCASIPGLVPKQLRFCRNYVEIMPSVAEGIKIGIQECQHQFRGRRWNCTTVHDSLAIFGPVLDKATRESAFVHAIASAGVAFAVTRSCAEGTAAICGCSSRHQGSPGKGWKWGGCSEDIEFGGMVSREFADARENRPDARSAMNRHNNEAGRQAIASHMHLKCKCHGLSGSCEVKTCWWSQPDFRAIGDFLKDKYDSASEMVVEKHRESRGWVETLRPRYTYFKVPTERDLVYYEASPNFCEPNPETGSFGTRDRTCNVSSHGIDGCDLLCCGRGHNARAERRREKCRCVFHWCCYVSCQECTRVYDVHTCK
B1: binds.
